Experimental data from WO2014037419A1 (dated 2014).

Tests used:
[1] = target: T1, Recombinant human CD74 73-232 (human, UniProt P04233 73-296); assay: BIAcore SPR, biotinylated Nb_49 on streptavidin chip, recombinant human CD74 73-232 at 0.05-500 nM as analyte
T1 construct: Bought from R&D Systems (NP_004346.1); The entry includes the N-terminal hemagglutinin tag; also called R&D systems 3590-CD
T1 sequence: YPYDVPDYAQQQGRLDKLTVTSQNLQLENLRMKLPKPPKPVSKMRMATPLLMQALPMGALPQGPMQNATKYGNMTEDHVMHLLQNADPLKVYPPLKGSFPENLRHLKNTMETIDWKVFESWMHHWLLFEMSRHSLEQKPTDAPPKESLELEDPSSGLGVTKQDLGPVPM

[2] = target: T2, Mouse CD74 on cells (C57Black/6 PECs, MC-38, 3LL) (mouse) (UniProt P04441); assay: FACS competition, PECs of WT mice, APC-labeled MIF 200ng as competitor/tracer plus Nb_49 (5 ug or 0.3 nM)
T2 sequence: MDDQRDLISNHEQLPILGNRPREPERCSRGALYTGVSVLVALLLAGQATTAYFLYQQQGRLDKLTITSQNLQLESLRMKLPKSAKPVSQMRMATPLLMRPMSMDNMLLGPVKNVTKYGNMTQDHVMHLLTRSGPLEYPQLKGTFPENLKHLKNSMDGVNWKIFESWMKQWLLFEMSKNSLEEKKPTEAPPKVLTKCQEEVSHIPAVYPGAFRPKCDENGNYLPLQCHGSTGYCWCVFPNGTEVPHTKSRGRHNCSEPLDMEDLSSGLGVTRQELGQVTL

[3] = target: T2, Mouse CD74 on cells (C57Black/6 PECs, MC-38, 3LL) (mouse); assay: FACS competition, PECs of MIF-/- mice, APC-labeled MIF 200ng as competitor/tracer plus Nb_49 (5 ug or 0.3 nM)
[4] = target: T2, Mouse CD74 on cells (C57Black/6 PECs, MC-38, 3LL) (mouse); assay: FACS, PECs of WT mice, APC-labeled MIF 200ng alone (cells without MIF: 22.4)
[5] = target: T2, Mouse CD74 on cells (C57Black/6 PECs, MC-38, 3LL) (mouse); assay: FACS, PECs of WT mice, APC-labeled MIF 200ng pre-incubated with the small molecule ISO-1 (20 nM)
[6] = target: T2, Mouse CD74 on cells (C57Black/6 PECs, MC-38, 3LL) (mouse); assay: FACS, PECs of MIF-/- mice, APC-labeled MIF 200ng alone (cells without MIF: 25.6)
[7] = target: T2, Mouse CD74 on cells (C57Black/6 PECs, MC-38, 3LL) (mouse); assay: FACS, PECs of MIF-/- mice, APC-labeled MIF 200ng pre-incubated with the small molecule ISO-1 (20 nM)

B1: NbhCD74n49 (VHH)
VHH: QVQLQESGGGSVQAGGSLRLSCVASGLVYSLKAYDWGWARQAPGKECELVGRIMPNGATVYIDSVKGRFIISRENSNNTVYLQMNSLKFEDTAVYYCARVGDPSGGWCKGQGTQVTVSS
notes: also called Nb_49; NB_49
B1 showed a Kd [1] of 5.73 nM, a koff [1] of 0.000581 s⁻¹ and a kon [1] of 102000 M⁻¹ s⁻¹. The mean fluorescence intensity of APC-labeled MIF bound to the cells [2] was 46.2 and the mean fluorescence intensity of APC-labeled MIF bound to the cells [3] was 69.4.

B2: Recombinant human MIF 2-115 (ligand)
chain: PMFIVNTNVPRASVPDGFLSELTQQLAQATGKPPQYIAVHVVPDQLMAFGGSSEPCALCSLHSIGKIGGAQNRSYSKLLCGLLAERLRISPDRVYINYYDMNAASVGWNNSTFA
With B2 the mean fluorescence intensity of APC-labeled MIF bound to the cells [4] was 64.8, the mean fluorescence intensity of APC-labeled MIF bound to the cells [5] was 49.9 and the mean fluorescence intensity of APC-labeled MIF bound to the cells [6] was 120. For the same binder, the mean fluorescence intensity of APC-labeled MIF bound to the cells [7] was 61.
